T1: MR-Gluc2 (mineralocorticoid receptor fused to Gluc2) (UniProt P08235 1-984)
T1 construct: not shown: Gaussia luciferase (Gluc), carboxyl-terminal fragment Gluc2, amino acids 94-169
T1 sequence (looked up): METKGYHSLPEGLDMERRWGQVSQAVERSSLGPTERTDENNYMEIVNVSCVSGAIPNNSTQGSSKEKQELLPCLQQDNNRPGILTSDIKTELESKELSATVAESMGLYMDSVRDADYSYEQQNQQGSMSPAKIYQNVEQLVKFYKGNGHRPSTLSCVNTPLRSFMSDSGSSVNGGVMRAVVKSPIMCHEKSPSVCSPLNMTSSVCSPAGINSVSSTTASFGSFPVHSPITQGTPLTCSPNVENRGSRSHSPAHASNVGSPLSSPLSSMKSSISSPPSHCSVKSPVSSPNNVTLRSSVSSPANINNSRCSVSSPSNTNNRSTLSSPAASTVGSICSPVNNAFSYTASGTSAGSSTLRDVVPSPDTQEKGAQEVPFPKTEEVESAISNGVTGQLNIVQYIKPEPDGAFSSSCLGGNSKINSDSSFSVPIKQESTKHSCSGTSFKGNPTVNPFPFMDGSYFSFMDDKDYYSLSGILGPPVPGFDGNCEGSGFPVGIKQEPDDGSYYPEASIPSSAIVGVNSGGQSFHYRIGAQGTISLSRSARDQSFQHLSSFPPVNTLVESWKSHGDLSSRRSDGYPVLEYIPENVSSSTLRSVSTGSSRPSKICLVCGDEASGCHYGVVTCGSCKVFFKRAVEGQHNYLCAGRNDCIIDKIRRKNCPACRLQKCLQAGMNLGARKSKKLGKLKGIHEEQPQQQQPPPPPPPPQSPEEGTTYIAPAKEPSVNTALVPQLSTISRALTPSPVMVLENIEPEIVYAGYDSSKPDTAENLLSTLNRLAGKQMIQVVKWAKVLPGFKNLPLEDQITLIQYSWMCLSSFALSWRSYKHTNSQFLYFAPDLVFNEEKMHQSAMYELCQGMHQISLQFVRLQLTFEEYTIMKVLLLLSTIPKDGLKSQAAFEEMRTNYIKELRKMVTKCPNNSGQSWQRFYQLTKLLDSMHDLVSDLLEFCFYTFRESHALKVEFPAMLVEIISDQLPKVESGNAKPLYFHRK

T2: ERα-Gluc2 (estrogen receptor alpha fused to Gluc2) (UniProt P03372 1-595)
T2 construct: not shown: Gaussia luciferase (Gluc), carboxyl-terminal fragment Gluc2, amino acids 94-169
T2 sequence (looked up): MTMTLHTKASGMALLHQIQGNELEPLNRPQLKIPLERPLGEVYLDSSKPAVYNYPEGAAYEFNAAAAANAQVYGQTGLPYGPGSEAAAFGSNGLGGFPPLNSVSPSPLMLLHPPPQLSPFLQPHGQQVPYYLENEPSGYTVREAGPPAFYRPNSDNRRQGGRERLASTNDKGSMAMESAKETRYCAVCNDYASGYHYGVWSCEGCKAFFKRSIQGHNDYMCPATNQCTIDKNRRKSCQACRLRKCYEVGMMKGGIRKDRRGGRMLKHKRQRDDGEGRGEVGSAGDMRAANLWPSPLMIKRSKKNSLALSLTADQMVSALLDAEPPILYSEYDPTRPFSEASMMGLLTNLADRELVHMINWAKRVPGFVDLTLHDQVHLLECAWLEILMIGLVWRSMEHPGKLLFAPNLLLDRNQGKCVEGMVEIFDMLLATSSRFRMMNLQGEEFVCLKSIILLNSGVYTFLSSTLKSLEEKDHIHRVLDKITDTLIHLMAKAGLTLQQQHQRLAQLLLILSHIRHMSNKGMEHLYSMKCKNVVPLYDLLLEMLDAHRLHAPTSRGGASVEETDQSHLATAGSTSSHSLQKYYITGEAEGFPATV

T3: GR-Gluc2 (full-length glucocorticoid receptor fused at its carboxyl terminus to Gluc2) (human, UniProt P04150 1-777)
T3 construct: domain: full length;range 94-169; Expressed in HEK-293/HEK-293T cells by transfection; also called Gluc2-GR; not shown: Gaussia luciferase (Gluc), carboxyl-terminal fragment Gluc2, amino acids 94-169
T3 sequence (looked up): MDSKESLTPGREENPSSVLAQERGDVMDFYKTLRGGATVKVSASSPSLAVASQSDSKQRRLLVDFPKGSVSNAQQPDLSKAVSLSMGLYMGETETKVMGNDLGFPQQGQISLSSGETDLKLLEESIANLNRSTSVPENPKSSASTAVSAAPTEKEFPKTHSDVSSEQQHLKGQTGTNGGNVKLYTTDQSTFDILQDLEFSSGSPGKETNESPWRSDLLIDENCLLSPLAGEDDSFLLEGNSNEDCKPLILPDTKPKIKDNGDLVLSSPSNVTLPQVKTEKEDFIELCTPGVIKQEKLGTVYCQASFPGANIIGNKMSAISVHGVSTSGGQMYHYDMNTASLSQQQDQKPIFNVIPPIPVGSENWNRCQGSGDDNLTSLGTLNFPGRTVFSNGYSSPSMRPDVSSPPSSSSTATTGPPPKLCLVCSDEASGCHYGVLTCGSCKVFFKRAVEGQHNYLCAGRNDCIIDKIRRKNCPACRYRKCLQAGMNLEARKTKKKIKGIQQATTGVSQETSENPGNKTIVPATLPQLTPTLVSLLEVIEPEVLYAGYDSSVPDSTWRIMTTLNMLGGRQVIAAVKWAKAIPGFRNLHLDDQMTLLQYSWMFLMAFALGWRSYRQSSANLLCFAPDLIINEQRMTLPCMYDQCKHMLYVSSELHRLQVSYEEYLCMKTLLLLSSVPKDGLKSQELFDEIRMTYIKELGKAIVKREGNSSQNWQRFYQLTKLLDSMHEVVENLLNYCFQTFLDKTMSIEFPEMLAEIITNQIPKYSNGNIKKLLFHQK


How the values were obtained:
[1] = biological target: T1, MR-Gluc2 (mineralocorticoid receptor …); test: PCA in HEK-293T cells, DEX 1 µM 60 min (FIG. 8B)
Experimental: (§1) (A) HEK-293T cells (6×10³) were seeded in 96-well plates. […] (B and C) HEK-293T cells (6×10³) were seeded in 96-well plates. […] Cells were then lysed and luminescence was determined.

[2] = biological target: T2, ERα-Gluc2 (estrogen receptor alpha …); test: PCA in HEK-293T cells, estradiol 10 nM 60 min (FIG. 8C)
Experimental: as §1

[3] = biological target: T3, GR-Gluc2 (full-length glucocorticoid …); test: PCA time course after DEX 1 µM in HEK-293T cells (FIG. 2A)
Experimental: (A) HEK-293T cells (6×10³) were seeded in 96-well plates. […] Luminescence of vehicle-treated cells was used for normalization. […] Images were processed using the Zeiss ZEN2011 software. […] Bars, 20 μm.

[4] = biological target: T3, GR-Gluc2 (full-length glucocorticoid …); test: PCA in HEK-293T cells, DEX 1 µM with or without RU486 1 µM (FIG. 1C)
Text: EB, empty beads; C, solvent control. Images shown are representative of three biological replicates.
The resulting luminescence was normalized to the signal associated with cells treated with vehicle only.

[5] = biological target: T2, ERα-Gluc2 (estrogen receptor alpha …); test: PCA in HEK-293T cells, vehicle against estradiol 10 nM 60 min (FIG. 8C)
Experimental: as §1

[6] = biological target: T3, GR-Gluc2 (full-length glucocorticoid …); test: PCA in HEK-293T cells, DEX 1 µM or estradiol 10 nM 60 min (FIG. 8D)
Experimental: as §1

Binder | binding result [1] | binding result [2] | further results
Gluc1-ERG (other, UniProt P11308-3 1-486, looked up, not shown: Gaussia luciferase (Gluc), amino-terminal fragment Gluc1, amino acids 1-93) MIQTVPDPAAHIKEALSVVSEDQSLFECAYGTPHLAKTEMTASSSSDYGQTSKMSPRVPQQDWLSQPPARVTIKMECNPSQVNGSRNSPDECSVAKGGKMVGSPDTVGMNYGSYMEEKHMPPPNMTTNERRVIVPADPTLWSTDHVRQWLEWAVKEYGLPDVNILLFQNIDGKELCKMTKDDFQRLTPSYNADILLSHLHYLRETPLPHLTSDDVDKALQNSPRLMHARNTGGAAFIFPNTSVYPEATQRITTRPDLPYEPPRRSAWTGHGHPTPQSKAAQPSPSTVPKTEDQRPQLDPYQILGPTSSRLANPGSGQIQLWQFLLELLSDSSNSSCITWEGTNGEFKMTDPDEVARRWGERKSKPNMNYDKLSRALRYYYDKNIMTKVHGKRYAYKFDFHGIAQALQPHPPESSLYKYPSDLPYMGSYHAHPQKMNFVAPHPPALPVTSSSFFAAPNPYWNSPTGGIYPNTRLPTSHMPSHLGTYY | binds | no binding | binding result [3]: binds
Gluc1-ETV2 (other, UniProt O00321 1-342, looked up, not shown: Gaussia luciferase (Gluc), amino-terminal fragment Gluc1, amino acids 1-93) MDLWNWDEASPQEVPPGNKLAGLEGAKLGFCFPDLALQGDTPTATAETCWKGTSSSLASFPQLDWGSALLHPEVPWGAEPDSQALPWSGDWTDMACTAWDSWSGASQTLGPAPLGPGPIPAAGSEGAAGQNCVPVAGEATSWSRAQAAGSNTSWDCSVGPDGDTYWGSGLGGEPRTDCTISWGGPAGPDCTTSWNPGLHAGGTTSLKRYQSSALTVCSEPSPQSDRASLARCPKTNHRGPIQLWQFLLELLHDGARSSCIRWTGNSREFQLCDPKEVARLWGERKRKPGMNYEKLSRGLRYYYRRDIVRKSGGRKYTYRFGGRVPSLAYPDCAGGGRGAETQ | binds | no binding | 
Gluc1-ELF3 (other, UniProt P78545 1-371, looked up, not shown: Gaussia luciferase (Gluc), amino-terminal fragment Gluc1, amino acids 1-93) MAATCEISNIFSNYFSAMYSSEDSTLASVPPAATFGADDLVLTLSNPQMSLEGTEKASWLGEQPQFWSKTQVLDWISYQVEKNKYDASAIDFSRCDMDGATLCNCALEELRLVFGPLGDQLHAQLRDLTSSSSDELSWIIELLEKDGMAFQEALDPGPFDQGSPFAQELLDDGQQASPYHPGSCGAGAPSPGSSDVSTAGTGASRSSHSSDSGGSDVDLDPTDGKLFPSDGFRDCKKGDPKHGKRKRGRPRKLSKEYWDCLEGKKSKHAPRGTHLWEFIRDILIHPELNEGLMKWENRHEGVFKFLRSEAVAQLWGQKKKNSNMTYEKLSRAMRYYYKREILERVDGRRLVYKFGKNSSGWKEEEVLQSRN |  |  | binding result [5]: binds
ERα-Gluc1 (estrogen receptor alpha fused to Gluc1) (receptor, UniProt P03372 1-595, looked up, not shown: Gaussia luciferase (Gluc), amino-terminal fragment Gluc1, amino acids 1-93) MTMTLHTKASGMALLHQIQGNELEPLNRPQLKIPLERPLGEVYLDSSKPAVYNYPEGAAYEFNAAAAANAQVYGQTGLPYGPGSEAAAFGSNGLGGFPPLNSVSPSPLMLLHPPPQLSPFLQPHGQQVPYYLENEPSGYTVREAGPPAFYRPNSDNRRQGGRERLASTNDKGSMAMESAKETRYCAVCNDYASGYHYGVWSCEGCKAFFKRSIQGHNDYMCPATNQCTIDKNRRKSCQACRLRKCYEVGMMKGGIRKDRRGGRMLKHKRQRDDGEGRGEVGSAGDMRAANLWPSPLMIKRSKKNSLALSLTADQMVSALLDAEPPILYSEYDPTRPFSEASMMGLLTNLADRELVHMINWAKRVPGFVDLTLHDQVHLLECAWLEILMIGLVWRSMEHPGKLLFAPNLLLDRNQGKCVEGMVEIFDMLLATSSRFRMMNLQGEEFVCLKSIILLNSGVYTFLSSTLKSLEEKDHIHRVLDKITDTLIHLMAKAGLTLQQQHQRLAQLLLILSHIRHMSNKGMEHLYSMKCKNVVPLYDLLLEMLDAHRLHAPTSRGGASVEETDQSHLATAGSTSSHSLQKYYITGEAEGFPATV |  |  | binding result [6]: binds

More lines, main results first:

binding result [1] | binding result [2] | Binder | further results
 | no binding | Gluc1-FLI1 (full-length FLI1 fused downstream of Gluc1) (other, UniProt Q01543 1-452, looked up, range 1-93;domain: full length; also called FiI1; not shown: Gaussia luciferase (Gluc), amino-terminal fragment Gluc1, amino acids 1-93) MDGTIKEALSVVSDDQSLFDSAYGAAAHLPKADMTASGSPDYGQPHKINPLPPQQEWINQPVRVNVKREYDHMNGSRESPVDCSVSKCSKLVGGGESNPMNYNSYMDEKNGPPPPNMTTNERRVIVPADPTLWTQEHVRQWLEWAIKEYSLMEIDTSFFQNMDGKELCKMNKEDFLRATTLYNTEVLLSHLSYLRESSLLAYNTTSHTDQSSRLSVKEDPSYDSVRRGAWGNNMNSGLNKSPPLGGAQTISKNTEQRPQPDPYQILGPTSSRLANPGSGQIQLWQFLLELLSDSANASCITWEGTNGEFKMTDPDEVARRWGERKSKPNMNYDKLSRALRYYYDKNIMTKVHGKRYAYKFDFHGIAQALQPHPTESSMYKYPSDISYMPSYHAHQQKVNFVPPHPSSMPVTSSSFFGAASQYWTSPTGGIYPNPNVPRHPNTHVPSHLGSYY | 
 | no binding | Gluc1-ETV4 (other, UniProt P43268 1-484, looked up, not shown: Gaussia luciferase (Gluc), amino-terminal fragment Gluc1, amino acids 1-93) MERRMKAGYLDQQVPYTFSSKSPGNGSLREALIGPLGKLMDPGSLPPLDSEDLFQDLSHFQETWLAEAQVPDSDEQFVPDFHSENLAFHSPTTRIKKEPQSPRTDPALSCSRKPPLPYHHGEQCLYSSAYDPPRQIAIKSPAPGALGQSPLQPFPRAEQRNFLRSSGTSQPHPGHGYLGEHSSVFQQPLDICHSFTSQGGGREPLPAPYQHQLSEPCPPYPQQSFKQEYHDPLYEQAGQPAVDQGGVNGHRYPGAGVVIKQEQTDFAYDSDVTGCASMYLHTEGFSGPSPGDGAMGYGYEKPLRPFPDDVCVVPEKFEGDIKQEGVGAFREGPPYQRRGALQLWQFLVALLDDPTNAHFIAWTGRGMEFKLIEPEEVARLWGIQKNRPAMNYDKLSRSLRYYYEKGIMQKVAGERYVYKFVCEPEALFSLAFPDNQRPALKAEFDRPVSEEDTVPLSHLDESPAYLPELAGPAQPFGPKGGYSY | binding result [4]: binds
